The source of these data is publication PMC5165034 (Frontiers in Immunology, 2016).

B1: 6F7 (VHH)
VHH: EVQLVESGGGLVKPGGSLRLSCAASGFTFSDYYMSWIRQAPGKGLEWVSYISSSGRTIYYADSVKGRFTISRDNAKNSLYLQMNSLRAEDTAVYYCARGGIAVAGTTRHYSDYWGQGTLVTVSS
B2: 4G9 (VHH)
VHH: EVQLLESGGGLVQRGGSLRLSCAASGFTFSSYAMSWVRQAPGKGLEWVSAISGSGGSTHYADSVKGRFTISRDNSKNTLYLQMNSLRAEDTAVYYCAKKGDRGYFFDYWGQGTLVTVSS
B3: 1B1 (VHH)
VHH: EVQLVESGGGLVKSGGSLRLSCAASGFTFSDYYMSWIRQAPGKGLEWVSYISSSGSTIYYADSVKGRFTISRDNAKNSLYLQMNSLRAEDTAVYYCARGISMARDYWGQGTLVTVSS
B4: 1C8 (VHH)
VHH: EVQLVESGGGLVKPGGSLRLSCAASGFTFSDYYMSWIRQAPGKGLEWVSYISSSGSTIYYADSVKGRFTISRDNAKNSLYLQMNSLRAEDTAVYYCARGISMVGDNWGQGTLVTVSS
B5: 1F12 (VHH)
VHH: EVQLVESGGGLVKPGGSLRLSCAASGFTFSDYYMSWIRQAPGKGLEWVSYISSSGSNIYYADSVKGRFTISRDNAKNSLYLQMNSLRAEDTAVYYCARGIAVAEDVWGQGTTVTVSS
B6: 7H12 (VHH)
VHH: EVQLVESGGGLVKPGGSLRLSCAASGFTFSDYYMSWIRQAPGKGLEWVSYISSSGSTIYYADSVKGRFTISRDNAKNSLYLQMNSLRAEDTAVYYCARGISMVGDYWGQGTLVTVSS
B7: 4E8 (VHH)
VHH: EVQLVESGGGLVKPGGSLRLSCAASGFTFSDYYMSWIRQAPGKGLEWVSYISSSGSTIYYADSVKGRFTISRDNAKNSLYLQMNSLRAEDTAVYYCARGISLTGDYWGQGTLVTVSS
B8: 1C9 (VHH)
VHH: EVQLVESGGGLVKPGGSLRLSCAASGFTFSDYYMSWIRQAPGKGLEWVSYISSSGSTIYYADSVKGRFTISRDNAKNSLYLQMNSLRAEDTAVYYCAKGISTTGDYWGQGALVSVSS
B9: 4D7 (VHH)
VHH: EVQLVEFGGGLVKPGGSLRLSCAASGFTFSDYYMSWIRQAPGKGLEWVSYISSSGSNIYYADSVKGRFTITRDNAKNSLYLQMNSLRAEDTAVYYCARGISMTGDYWGQGTQVTVSS
B10: 1H4 (VHH)
VHH: EVQLVESGGGLVKPGGSLRLSCAASGFTFSDYYMSWIRQAPGKGLEWVSYISSSGSTIYYADSVKGRFTISRDNAKNSLYLQMNSLRAEDTAVYYCARGIAMVEDSWGQGTLVTVSS
B11: 1D10 (VHH)
VHH: EVQLVESGGGLVKPGGSLRLSCAASGFTFSDYYMSWIRQAPGKGLEWVSYISSGGDTIYYADSVKGRFTISRDNAKNSLYLQMNSLRAEDTAVYYCARGISMTGDYWGQGTLVNVSS
B12: 1F1 (VHH)
VHH: EVQLVESGGGLVKPGGSLRLSCAASGFTFSDYYMSWIRQAPGKGLEWVSYISSSGSTIYYADSVKGRFTISRDNAKNSLYLQMNSLRAEDTAVYYCARGVKLTEDNWGQGTLVTVSS
B13: 1F10 (VHH)
VHH: EVQLVESGGGLVKPGGSLRLSCAASGFTFSDYYMSWIRQAPGKGLEWVSYISSSGSTIYYADSVKGRFTISRDNAKNSLYLQMSSLRAEDTAVYYCARGISLTGTDWGQGTLVTVSS
B14: 4H7 (VHH)
VHH: EVQLVESGGGLVKPGGSLRLSCAASGFTFSDYYMSWIRQAPGKGLEWVSYISSSGSTIYYADSVKGRFTISRDNAKNSLYLQMNSLRAEDTAVYYCARGISVTGDSWGQGTLVTVSS
B15: 1C4 (VHH)
VHH: EVQLVESGGGLVKPGGSLRLSCAASGFTFSDYYMSWIRQAPGKGLEWVSYISSSGSTIYYADSVKGRFTISRDNAKNSLYLQMNSLRAEDTAVYYCARGISMAGDSWGQGTLVTVSS
B16: 1H11 (VHH)
VHH: EVQLVESGGGLVKPGGSLRLSCAASGFTFSDYYMSWIRRAPGKGLEWVSYISSSGSNIYYVDSVKGRFTISRDNAKNSLYLQMNSLRAEDTAVYYCARGIAMTGDYWGQGTQVTVTS
B17: 1A7 (VHH)
VHH: EVQLVESGGGLVKPGGSLRLSCAASGFTFSDYYMSWIRQAPGKGLEWVSYISSSGSTIYYADSVKGRFTISRDNAKNSLYLQMNSLRAEDTAVYYCARGISMTGDYWGQGTLVNVSS
B18: 1D8 (VHH)
VHH: EVQLVESGGGLVKPGGSLRLSCAASGFTFSDYYMSWIRQAPGKGLEWVSYISSSGSTIYYADSVKGRFTISRDNAKNSLYLQMNSLRAEDTAVYYCARGPPFDYWGQGTLVTVSS
B19: 3A5 (VHH)
VHH: EVQLVESGGGLVKPGGSLRLSCAASGFIFSDYYMSWIRQAPGKGLEWISYISSSGDSIYYADSVKGRFTISRDDAKNSLSLQMNSLRAEDTAVYYCARGWFGESHYSDFWGQGTLVTVSS
B20: 2D1 (VHH)
VHH: EVQLVESGGGLVKPGGSLRLSCAASGFTFSDYYMSWIRQAPGKGLEWVSYISSSGSTIYYADSVRGRFTISRDNAKDSLYLQMNSLRAEDTAVYYCARRRSLTVGAPTYWGQGTLVTVSS
B21: 2B3 (VHH)
VHH: EVQLVESGGGLVKPGGSLRLSCAASGFTFSDYYMSWIRQAPGKGLEWVSYISSSGSIIYYADSVKGRFTISRDNAKDSLYLQMNSLRAEDTAVYYCARRRSLTVGAPTYWGQGTLVTVSS
B22: 4D3 (VHH)
VHH: EVQLVESGGGLVKPGGSLRLSCAASGFTFSDYYMSWIRQAPGKGLEWVSYISSSGSTLYYADSVRGRFTISRDNAKDSLYLQMNSLRAEDTAVYYCARRRSLTVGAPTYWGQGTLVTVSS
B23: 2E2 (VHH)
VHH: EVQLVESGGGLVKPGGSLRLSCEASGFTFSDYYMSWIRQAPGKGLEWVSYISSSGSTIYYADSVKGRFTISRDNAKDSLYLQMNSLRAEDTAVYYCARRRSLTVGAPTYWGQGTLVTVSS
B24: 2B5 (VHH)
VHH: EVQLVESGGGLVKPGGSLRLSCAASGFTFSDYYMTWIRQTPGKGLEWVSYISDDNNTIYYADSVKGRFTISRDNAKNSLYLQMNSLRAEDTAVYYCARDGYFGELPGFDYWGQGTLVTVSS
B25: 4A12 (VHH)
VHH: EVQLVESGGGLVKPGGSLRLSCAASGFTFSDYYMSWIRQAPGKGLEWVSYISSSGNTIYYADSVKGRFTISRDNAKNSLYLQMNSLRAEDTAVYYCARDRLGMVRPLHYWGQGTLVTVSS
B26: 2F5 (VHH)
VHH: EVQLVESGGDLVEPGGSLRLSCAASGFTFSDYYMSWIRQAPGKGLEWVSYISGSGNTIYYADSVKGRFTISRDNAKNSLYLQMNSLRAEDTAVYYCARDRLGMVRPLHYWGQGTLVTVSS
B27: 2E6 (VHH)
VHH: EVQLVESGGGLVKPGGSLRLSCAASGFTFSDYYMSWIRQAPGKGLEWVSYISGSGNTIYYADSVKGRFTISRDNAKNSLYLQMNSLRAEDTAVYYCARDRLGMVRPLHYWGQGTLVTVSS
B28: 4F5 (VHH)
VHH: EVQLVESGGGLVKPGGSLRLSCAASGFTFSDYYMSWIRQAPGKGLEWVSYISSSGSTIYYADSVKGRFTISRDNAKNSLYLQMNSLRAEDTAVYYCARRRSLTVGAPTYWGQGTLVTVSS
B29: 3B8 (VHH)
VHH: EVQLVESGGGLVKPGGSLRLSCAASGFTFSDYYMSWIRQAPGKGLEWVSYISGSGNTIYYADSVRGRFTISRDNAKNSLYLQMNSLRAEDTALYYCARDRAGMVRGPHYWGQGTLVTVSS
B30: 3A6 (VHH)
VHH: EVQLVESGGGLVKPGGSLRLSCAASGFTFSDYYMSWIRQAPGKGLEWVSYISGSGNTIYYADSVKGRFTISRDNAKNSLYLQMNSLRAEDTAVYYCARDRLGMDRPLHYWGQGTLVTVSS
B31: 4F9 (VHH)
VHH: EVQLVESGGGLVKPGGSLRLSCAASGFTFSDYYMSWIRQAPGKGLEWVSYISSSGSTIYYADSVKGRFTISRDNAKNSLYLQMNSLRAEDTAVYYCARDLVGATDFDYWGQGTLVTVSS
B32: 3C8 (VHH)
VHH: EVQLLESGGGLVQPGGSLRLSCAASGFTFSSYAMSWVRQAPGKGLEWVSAITGSGSSTYYADSVKGRFTISRDNSKNTLYLQMNSLRAEDTAVYYCAKDRPYGSGSYKYGMDVGGQGTTVTVSS

This assay addresses influenza virus X-31 hemagglutinin (HA) (Influenza A virus X-31 (H3N2; HA of …, UniProt P03437, strain).
For B1, the binding result is recorded as “binds”.

In the case of B2, the binding result was “binds”.

For the molecule B3, the binding result is “binds”.

With B4, the binding result was “binds”.

With B5, the binding result was “binds”.

Take B6: the binding result was “binds”.

In the case of B7, the binding result is “binds”.

For the molecule B8, the binding result is recorded as “binds”.

In the case of B9, the binding result is given as “binds”.

For B10, the binding result is on record as “binds”.

Regarding B11, the binding result is on record as “binds”.

As to B12, the binding result is recorded as “binds”.

For the molecule B13, the binding result is “binds”.

As for B14, the binding result is on record as “binds”.

For the molecule B15, the binding result was “binds”.

Consider B16, for which the binding result is on record as “binds”.

Take B17: the binding result is given as “binds”.

B18: the binding result is given as “binds”.

Turning to B19, the binding result was “binds”.

As for B20, the binding result is reported as “binds”.

Turning to B21, the binding result is recorded as “binds”.

In the case of B22, the binding result is on record as “binds”.

Turning to B23, the binding result is reported as “binds”.

On to B24, for which the binding result was “binds”.

Regarding B25, the binding result is on record as “binds”.

As for B26, the binding result was “binds”.

As to B27, the binding result is recorded as “binds”.

For the molecule B28, the binding result was “binds”.

As to B29, the binding result was “binds”.

As for B30, the binding result is listed as “binds”.

Regarding B31, the binding result is recorded as “binds”.

B32: the binding result is “binds”.
